Laboratory results as given in publication PMC11317151, “DNA binding and bridging by human CtIP in the healthy and diseased states” (Nucleic Acids Research, 2023).
Changes are numbered by the printed parent chain. Numbers in names are those of the source.

B1: CtIP ΔN500 (domain or fragment, human, UniProt Q99708 500-897, looked up)
chain: IQRQEKSQGSETSKNKFRQVTLYEALKTIPKGFSSSRKASDGNCTLPKDSPGEPCSQECIILQPLNKCSPDNKPSLQIKEENAVFKIPLRPRESLETENVLDDIKSAGSHEPIKIQTRSDHGGCELASVLQLNPCRTGKIKSLQNNQDVSFENIQWSIDPGADLSQYKMDVTVIDTKDGSQSKLGGETVDMDCTLVSETVLLKMKKQEQKGEKSSNEERKMNDSLEDMFDRTTHEEYESCLADSFSQAADEEEELSTATKKLHTHGDKQDKVKQKAFVEPYFKGDERETSLQNFPHIEVVRKKEERRKLLGHTCKECEIYYADMPAEEREKKLASCSRHRFRYIPPNTPENFWEVGFPSTQTCMERGYIKEDLDPCPRPKRRQPYNAIFSPKGKEQKT
notes: CtIP, human, the first 499 amino acids removed (begins at residue 500); a and b are two SEC fractions (dimer and monomer peaks) of the same preparation; also called ΔN500a; ΔN500b; source: High-Five insect cells (baculovirus), purified (StrepTactin, MonoQ, Superose 6 SEC); not shown: StrepII, C-terminal, kept
B2: CtIP ΔN541 (domain or fragment, human, UniProt Q99708 541-897, looked up)
chain: GNCTLPKDSPGEPCSQECIILQPLNKCSPDNKPSLQIKEENAVFKIPLRPRESLETENVLDDIKSAGSHEPIKIQTRSDHGGCELASVLQLNPCRTGKIKSLQNNQDVSFENIQWSIDPGADLSQYKMDVTVIDTKDGSQSKLGGETVDMDCTLVSETVLLKMKKQEQKGEKSSNEERKMNDSLEDMFDRTTHEEYESCLADSFSQAADEEEELSTATKKLHTHGDKQDKVKQKAFVEPYFKGDERETSLQNFPHIEVVRKKEERRKLLGHTCKECEIYYADMPAEEREKKLASCSRHRFRYIPPNTPENFWEVGFPSTQTCMERGYIKEDLDPCPRPKRRQPYNAIFSPKGKEQKT
notes: CtIP, human, the first 540 amino acids removed (begins at residue 541); a and b are two SEC fractions (dimer and monomer peaks) of the same preparation; No tag cleavage is described in its purification; also called ΔN541a; ΔN541b; source: High-Five insect cells (baculovirus), purified (StrepTactin, MonoQ, Superose 6 SEC)
B3: CtIP-L27E (natural protein, human, UniProt Q99708 1-897, looked up)
chain: MNISGSSCGSPNSADTSSDFKDLWTKEKECHDREVQGLQVKVTKLKQERILDAQRLEEFFTKNQQLREQQKVLHETIKVLEDRLRAGLCDRCAVTEEHMRKKQQEFENIRQQNLKLITELMNERNTLQEENKKLSEQLQQKIENDQQHQAAELECEEDVIPDSPITAFSFSGVNRLRRKENPHVRYIEQTHTKLEHSVCANEMRKVSKSSTHPQHNPNENEILVADTYDQSQSPMAKAHGTSSYTPDKSSFNLATVVAETLGLGVQEESETQGPMSPLGDELYHCLEGNHKKQPFEESTRNTEDSLRFSDSTSKTPPQEELPTRVSSPVFGATSSIKSGLDLNTSLSPSLLQPGKKKHLKTLPFSNTCISRLEKTRSKSEDSALFTHHSLGSEVNKIIIQSSNKQILINKNISESLGEQNRTEYGKDSNTDKHLEPLKSLGGRTSKRKKTEEESEHEVSCPQASFDKENAFPFPMDNQFSMNGDCVMDKPLDLSDRFSAIQRQEKSQGSETSKNKFRQVTLYEALKTIPKGFSSSRKASDGNCTLPKDSPGEPCSQECIILQPLNKCSPDNKPSLQIKEENAVFKIPLRPRESLETENVLDDIKSAGSHEPIKIQTRSDHGGCELASVLQLNPCRTGKIKSLQNNQDVSFENIQWSIDPGADLSQYKMDVTVIDTKDGSQSKLGGETVDMDCTLVSETVLLKMKKQEQKGEKSSNEERKMNDSLEDMFDRTTHEEYESCLADSFSQAADEEEELSTATKKLHTHGDKQDKVKQKAFVEPYFKGDERETSLQNFPHIEVVRKKEERRKLLGHTCKECEIYYADMPAEEREKKLASCSRHRFRYIPPNTPENFWEVGFPSTQTCMERGYIKEDLDPCPRPKRRQPYNAIFSPKGKEQKT
notes: CtIP, human, with the point mutation L27E in the N-terminal tetramerisation interface; Probably made like the wild type (insect cells, StrepII tag)
B4: Wild type CtIP (natural protein, human, UniProt Q99708 1-897, looked up)
chain: B3 chain with E27L
notes: CtIP, human DNA repair factor, wild type, full length; the tag was probably cleaved from the wild type too; also called WT-CtIP; CtIP-WT
B5: CtIP ΔC782 (domain or fragment, human, UniProt Q99708 1-782, looked up)
chain: MNISGSSCGSPNSADTSSDFKDLWTKLKECHDREVQGLQVKVTKLKQERILDAQRLEEFFTKNQQLREQQKVLHETIKVLEDRLRAGLCDRCAVTEEHMRKKQQEFENIRQQNLKLITELMNERNTLQEENKKLSEQLQQKIENDQQHQAAELECEEDVIPDSPITAFSFSGVNRLRRKENPHVRYIEQTHTKLEHSVCANEMRKVSKSSTHPQHNPNENEILVADTYDQSQSPMAKAHGTSSYTPDKSSFNLATVVAETLGLGVQEESETQGPMSPLGDELYHCLEGNHKKQPFEESTRNTEDSLRFSDSTSKTPPQEELPTRVSSPVFGATSSIKSGLDLNTSLSPSLLQPGKKKHLKTLPFSNTCISRLEKTRSKSEDSALFTHHSLGSEVNKIIIQSSNKQILINKNISESLGEQNRTEYGKDSNTDKHLEPLKSLGGRTSKRKKTEEESEHEVSCPQASFDKENAFPFPMDNQFSMNGDCVMDKPLDLSDRFSAIQRQEKSQGSETSKNKFRQVTLYEALKTIPKGFSSSRKASDGNCTLPKDSPGEPCSQECIILQPLNKCSPDNKPSLQIKEENAVFKIPLRPRESLETENVLDDIKSAGSHEPIKIQTRSDHGGCELASVLQLNPCRTGKIKSLQNNQDVSFENIQWSIDPGADLSQYKMDVTVIDTKDGSQSKLGGETVDMDCTLVSETVLLKMKKQEQKGEKSSNEERKMNDSLEDMFDRTTHEEYESCLADSFSQAADEEEELSTATKKLHTHGDKQDKVKQKAFVEPYFK
notes: designed to be equivalent to the deletion of Seckel-2 syndrome; also called ΔC782 CtIP; Seckel-2 variant
B6: CtIP ΔC608 (domain or fragment, human, UniProt Q99708 1-608, looked up)
chain: MNISGSSCGSPNSADTSSDFKDLWTKLKECHDREVQGLQVKVTKLKQERILDAQRLEEFFTKNQQLREQQKVLHETIKVLEDRLRAGLCDRCAVTEEHMRKKQQEFENIRQQNLKLITELMNERNTLQEENKKLSEQLQQKIENDQQHQAAELECEEDVIPDSPITAFSFSGVNRLRRKENPHVRYIEQTHTKLEHSVCANEMRKVSKSSTHPQHNPNENEILVADTYDQSQSPMAKAHGTSSYTPDKSSFNLATVVAETLGLGVQEESETQGPMSPLGDELYHCLEGNHKKQPFEESTRNTEDSLRFSDSTSKTPPQEELPTRVSSPVFGATSSIKSGLDLNTSLSPSLLQPGKKKHLKTLPFSNTCISRLEKTRSKSEDSALFTHHSLGSEVNKIIIQSSNKQILINKNISESLGEQNRTEYGKDSNTDKHLEPLKSLGGRTSKRKKTEEESEHEVSCPQASFDKENAFPFPMDNQFSMNGDCVMDKPLDLSDRFSAIQRQEKSQGSETSKNKFRQVTLYEALKTIPKGFSSSRKASDGNCTLPKDSPGEPCSQECIILQPLNKCSPDNKPSLQIKEENAVFKIPLRPRESLETENVLDDIKSAGS
notes: designed to be equivalent to the deletion of Jawad syndrome; also called ΔC608 CtIP; Jawad variant
B7: CtIP-R100W (natural protein, human, UniProt Q99708 1-897, looked up)
chain: B3 chain with E27L, R100W
notes: CtIP, human, with the point mutation R100W that is associated with Seckel-like disease and early onset breast cancer; Expected tetramer mass is printed as 404 kDa, as for the wild type; also called R100W CtIP; source: insect cells (baculovirus, pACEBac1), purified

Experiments:
[1] = target: the molecule itself; test: SEC-MALS; Superose 6 10/300; samples of 0.5–1 mg/ml injected; 20 mM Tris–Cl pH 8.0, 200 mM NaCl, 0.5 mM TCEP
[2] = target: the molecule itself; test: native gel or EMSA; native blue PAGE of purified CtIP proteins, compared with the wild type (tetramer) and CtIP-L27E (dimer) reference proteins

Protein	stoichiometry N [1]	binding result [2]
B1	2	–
B2	2	–
B3	–	binds
B4	4	–
B5	4	–
B6	4	–
B7	4	–
